According to patent US20130230533A1 (Regeneron, published 2013):
Blank lines part the entries; values can stand above or below the binder they belong to.

Assays:
Dimeric human CD48-mFc = biological target: T1, Dimeric human CD48-mFc (human); assay: SPR (Biacore T100), 25 C, antibody captured by anti-Fc, dimeric CD48-mFc in solution
T1 chain: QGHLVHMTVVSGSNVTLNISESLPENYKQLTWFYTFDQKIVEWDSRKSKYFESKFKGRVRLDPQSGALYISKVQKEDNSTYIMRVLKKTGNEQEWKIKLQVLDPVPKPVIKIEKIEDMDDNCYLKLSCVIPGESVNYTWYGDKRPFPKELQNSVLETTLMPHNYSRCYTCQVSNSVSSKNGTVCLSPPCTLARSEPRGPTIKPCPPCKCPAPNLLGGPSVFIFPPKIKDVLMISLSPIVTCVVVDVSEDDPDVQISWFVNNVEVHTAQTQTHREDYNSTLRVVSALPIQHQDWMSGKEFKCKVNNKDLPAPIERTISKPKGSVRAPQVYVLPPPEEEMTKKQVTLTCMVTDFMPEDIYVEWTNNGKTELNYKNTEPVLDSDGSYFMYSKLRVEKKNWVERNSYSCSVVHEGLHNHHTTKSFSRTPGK
Method: (§1) Measurements were conducted on a T100-2 BIACORE™ instrument (Biacore Life Sciences division of GE Healthcare, Piscataway, N.J.). Antibodies (either with mouse Fc [designated “H2M” or “H3M”] or human IgG4 Fc [designated “H4H”]) were captured through an anti-Fc chip surface, and CD48 was flowed over the surface either in a monomeric (soluble CD48 expressed with a myc-myc-hexa-histidine C-terminal tag [mmH]) or dimeric (soluble CD48 expressed with a C-terminal Fc fusion [mFc]) format.
(§2) The soluble CD48 was applied to the flow cell in separate injections at different concentrations, and kinetic association (kₐ) and dissociation (kd) rate constants were determined by fits to the kinetic binding data using Biacore software. Binding dissociation equilibrium constants and dissociation half-times were calculated from the kinetic rate constants as: KD=kd/kₐ; t_{1/2}=(ln 2/kd) (units: ka=M⁻¹*s⁻¹; kd=s⁻¹; KD=M; T½=min) (Tables 3-6).

Monomeric human CD48-mmH = biological target: T2, Monomeric human CD48-mmH (human); assay: SPR (Biacore T100), 25 C, antibody captured by anti-Fc, monomeric CD48-mmH in solution
T2 construct: also called soluble CD48 expressed with a myc-myc-hexa-histidine C-terminal tag [mmH]
T2 chain: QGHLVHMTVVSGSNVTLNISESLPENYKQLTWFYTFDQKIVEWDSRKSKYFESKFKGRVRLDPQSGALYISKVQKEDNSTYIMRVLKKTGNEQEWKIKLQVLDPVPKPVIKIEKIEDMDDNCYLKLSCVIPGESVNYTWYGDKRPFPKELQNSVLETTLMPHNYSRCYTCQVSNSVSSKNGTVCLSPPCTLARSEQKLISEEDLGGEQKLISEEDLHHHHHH
Method: as §1, §2

B1: H4H1771P (antibody, human IgG4, V domains shown)
VH: QVQLVQSGTEVKKPGASVKVSCKVSGYTLIDLSIHWVRQAPGEGLEWMGGFDPEESETIYAQKFQGRVTMTEDTSTDTAYMELSSLRSEDTAVYYCVTEPIFGILIHESWGQGTLVTVSS
VL: DIVMTQTPLSSPVTLGQPASISCRSSHSPVHSNGHTYLSWLQQRPGQPPRILIYKISRRFSGVPDRFSGSGAGTDFTLKISRVETEDVGIYYCMQASQFPWTFGQGTKVEIK
notes: Human IgG4 Fc (prefix H4H)
- Kd (Dimeric human CD48-mFc): 0.00736 nM
- T½ (Dimeric human CD48-mFc): 12.7 h
- koff (Dimeric human CD48-mFc): 1.52e-05 s⁻¹
- kon (Dimeric human CD48-mFc): 2.07e+06 M⁻¹ s⁻¹
- Kd (Monomeric human CD48-mmH): 0.26 nM
- T½ (Monomeric human CD48-mmH): 0.917 h
- koff (Monomeric human CD48-mmH): 0.000209 s⁻¹
- kon (Monomeric human CD48-mmH): 805000 M⁻¹ s⁻¹

B3: H4H1707N (antibody, human IgG4, V domains shown)
VH: EGQLLESGGGLAQPGGSLRLSCAASGITFGRYAMSWVRQAPGKGLEWVSLISGSGGSTYHADSVKGRFTISRDNSKNTLYLQMNSLRAEDTAVYYCAIYNNYNWFDPWGQGTLVTVSS
VL: EIVLTQSPGTLSLSPGERATLSCRASQSVSSNYLAWYQQKPGQAPRLLIYDASSRATDIPDRFSGSGSGTDFTLTISRLEPEDFAVYYCQQYGSSPRTFGQGTKVEIK
notes: Human IgG4 Fc (prefix H4H)
- Kd (Dimeric human CD48-mFc): 0.0736 nM
- T½ (Dimeric human CD48-mFc): 6.8 h
- koff (Dimeric human CD48-mFc): 2.83e-05 s⁻¹
- kon (Dimeric human CD48-mFc): 385000 M⁻¹ s⁻¹
- Kd (Monomeric human CD48-mmH): 3.57 nM
- T½ (Monomeric human CD48-mmH): 0.317 h
- koff (Monomeric human CD48-mmH): 0.000601 s⁻¹
- kon (Monomeric human CD48-mmH): 168000 M⁻¹ s⁻¹

B4: H4H1772P (antibody, human IgG4, V domains shown)
VH: EVQLVESGGGLVQPGGSLRLSCAASGFTFSSYWMSWVRQAPGKGLEWVANIMRDGSEKYYVDSVKGRFTISRDNAKNSLYLQMNSLRGEDTAVYYCARERGFYTNYGNWFDPWGQGTLVTVSS
VL: DIVMTQSPLSLTVTPGESASISCRSSQSLLHSYGYNSLDWYLQKPGQSPQFLIYLVSNRASGVPDRFSGSGSGTDFTLKISRVEAEDVGVYYCMQVLQTPYTFGQGTKLEIK
notes: Human IgG4 Fc (prefix H4H)
- Kd (Dimeric human CD48-mFc): 0.0344 nM
- T½ (Dimeric human CD48-mFc): 14.9 h
- koff (Dimeric human CD48-mFc): 1.29e-05 s⁻¹
- kon (Dimeric human CD48-mFc): 376000 M⁻¹ s⁻¹
- Kd (Monomeric human CD48-mmH): 1.38 nM
- T½ (Monomeric human CD48-mmH): 1.1 h
- koff (Monomeric human CD48-mmH): 0.000176 s⁻¹
- kon (Monomeric human CD48-mmH): 127000 M⁻¹ s⁻¹

B5: H3M1766N (antibody, V domains shown)
VH: EVQLVESGGGLAQPGGSLRLSCAASGFTFSSYEMNWVRQAPGKGLEWVSYITTSGSTIYYADSVKGRFTMSRDNAKKSLYLEMNSLRAEDTAVYYCAREECTNGVCYKDYQYYGMDVWGQGTTVTVSS
VL: DIQMTQSPSSVSASVGDRVTITCRASQNINTWLAWYQQKPGKVPKLLIYAASSLQSGVPSRFSGSGSGTDFTLTISSLQPEDFATYYCQQANSFPLTFGGGTKVEIK
notes: also called H2M1766N
- Kd (Dimeric human CD48-mFc): 0.51 nM
- T½ (Dimeric human CD48-mFc): 2.93 h
- koff (Dimeric human CD48-mFc): 6.57e-05 s⁻¹
- kon (Dimeric human CD48-mFc): 129000 M⁻¹ s⁻¹
- Kd (Monomeric human CD48-mmH): 2.79 nM
- T½ (Monomeric human CD48-mmH): 1.08 h
- koff (Monomeric human CD48-mmH): 0.000177 s⁻¹
- kon (Monomeric human CD48-mmH): 63400 M⁻¹ s⁻¹

Continued by falling Kd (Dimeric human CD48-mFc), values first:

- Kd (Dimeric human CD48-mFc): 0.0923 nM
- T½ (Dimeric human CD48-mFc): 2.92 h
- koff (Dimeric human CD48-mFc): 6.59e-05 s⁻¹
- kon (Dimeric human CD48-mFc): 714000 M⁻¹ s⁻¹
- Kd (Monomeric human CD48-mmH): 4.92 nM
- T½ (Monomeric human CD48-mmH): 0.3 h
- koff (Monomeric human CD48-mmH): 0.000642 s⁻¹
- kon (Monomeric human CD48-mmH): 131000 M⁻¹ s⁻¹
B2: H2M1707N (antibody, mouse IgG2, V domains shown)
VH: EGQLLESGGGLAQPGGSLRLSCAASGITFGRYAMSWVRQAPGKGLEWVSLISGSGGSTYHADSVKGRFTISRDNSKNTLYLQMNSLRAEDTAVYYCAIYNNYNWFDPWGQGTLVTVSS
VL: EIVLTQSPGTLSLSPGERATLSCRASQSVSSNYLAWYQQKPGQAPRLLIYDASSRATDIPDRFSGSGSGTDFTLTISRLEPEDFAVYYCQQYGSSPRTFGQGTKVEIK

- Kd (Dimeric human CD48-mFc): 0.00325 nM
- T½ (Dimeric human CD48-mFc): 34.7 h
- koff (Dimeric human CD48-mFc): 5.54e-06 s⁻¹
- kon (Dimeric human CD48-mFc): 1.71e+06 M⁻¹ s⁻¹
- Kd (Monomeric human CD48-mmH): 0.259 nM
- T½ (Monomeric human CD48-mmH): 1.27 h
- koff (Monomeric human CD48-mmH): 0.000153 s⁻¹
- kon (Monomeric human CD48-mmH): 589000 M⁻¹ s⁻¹
B6: H4H1770P (antibody, human IgG4, V domains shown)
VH: QVQLVQSGAEVKKPGAAVKVSCKASGYTFTAYGISWVRQAPGQGLEWMGWISAYDGDTNNAQKFQGRVTMTTDTSSSTAYMELRSLGSDDTAVYYCARDRYSSSSGYFDYWGQGTLVTVSS
VL: DIQMTQSPSSVSASVGDRVTITCRASQDISSWLAWSQQKPGKAPKALIYAASSLQSGVPSRFSGSGSGTDFTLTISSLQPEDFATYYCQQANSFPYTFGQGTKLEIK
notes: Human IgG4 Fc (prefix H4H)
